Reference: PMC3274541 (2012)

Target: T1, GST-AIPL1 (Homo sapiens (Human), UniProt Q9NZN9)
T1 chain: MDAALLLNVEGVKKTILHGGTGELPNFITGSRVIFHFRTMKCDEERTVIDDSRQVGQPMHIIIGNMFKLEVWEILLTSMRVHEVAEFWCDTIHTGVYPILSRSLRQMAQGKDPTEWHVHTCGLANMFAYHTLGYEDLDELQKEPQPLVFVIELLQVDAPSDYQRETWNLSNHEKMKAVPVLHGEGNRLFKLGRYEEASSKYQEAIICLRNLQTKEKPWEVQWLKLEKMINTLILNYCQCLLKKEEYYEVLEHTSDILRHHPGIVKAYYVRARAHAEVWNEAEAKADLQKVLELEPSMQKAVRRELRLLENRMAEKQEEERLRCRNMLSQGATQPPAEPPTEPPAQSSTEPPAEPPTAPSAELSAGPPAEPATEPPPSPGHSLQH
Assay: GST pull-down

B1: His6-FAT10, recombinant purified (protein)
chain: MAPNASCLCVHVRSEEWDLMTFDANPYDSVKKIKEHVRSKTKVPVQDQVLLLGSKILKPRRSLSSYGIDKEKTIHLTLKVVKPSDEELPLFLVESGDEAKRHLLQVRRSSSVAQVKAMIETKTGIIPETQIVTCNGKRLEDGKMMADYGIRKGNLLFLACYCIGG
binding result: binds
